Measurements as given in US20040214256.

T1: Compound 1s, Ac-Ile-Ile-PyA-pNF-Asn-Thr-Pro-Glu-His-Val-Val-Pro-Tyr-Gly-Leu-Gly-Ser-COOH
T1 sequence: IIXXNTPEHVVPYGLGS

T2: Compound 2s, Ac-Arg-Pro-Lys-Pro-Gln-Gln-PyA-pNF-Gly-Leu-Met-NH2
T2 sequence: RPKPQQXXGLM

T3: peptide 3s, Ac-Ser-Gly-PyA-Lys-Ala-Phe-Ala-pNF-Gly-Lys NH2
T3 sequence: SGXKAFAXGK

T4: Compound 1s, Ac-Ile-Ile-PyA-pNF-Asn-Thr-Pro-Glu-His-Val-Val-Pro-Tyr-Gly-Leu-Gly-Ser-COOH
T4 chain: IIXXNTPEHVVPYGLGS

T5: peptide 3s, Ac-Ser-Gly-PyA-Lys-Ala-Phe-Ala-pNF-Gly-Lys NH2
T5 chain: SGXKAFAXGK


Tests used:
[1] = tested on: T1, Compound 1s, Ac-Ile-Ile-PyA-pNF-Asn-Thr-Pro-Glu-His-Val-Val-Pro-Tyr-Gly-Leu-Gly-Ser-COOH
[2] = tested on: T2, Compound 2s, Ac-Arg-Pro-Lys-Pro-Gln-Gln-PyA-pNF-Gly-Leu-Met-NH2
[3] = tested on: T3, peptide 3s, Ac-Ser-Gly-PyA-Lys-Ala-Phe-Ala-pNF-Gly-Lys NH2
[4] = target: T4, Compound 1s, …
[5] = target: T5, peptide 3s, …

Row | Molecule | cleavage by HPLC after 2 h at 37° C. [1] | cleavage by HPLC after 2 h at 37° C. [2] | cleavage by HPLC after 2 h at 37° C. [3] | Km (fluorimetric cleavage assay, ENZFITTER) [4] | cleavage products by HPLC [4] | cleavage products by HPLC [5]
1 | angiotensin-converting enzyme (ACE) | no cleavage is observed by HPLC after incubation for 2 h at 37 °C | no cleavage is observed by HPLC after incubation for 2 h at 37 °C | no cleavage is observed by HPLC after incubation for 2 h at 37 °C |  |  | 
2 | neprilysin (NEP) | no cleavage is observed by HPLC after incubation for 2 h at 37 °C | no cleavage is observed by HPLC after incubation for 2 h at 37 °C | no cleavage is observed by HPLC after incubation for 2 h at 37 °C |  |  | 
3 | endothelin-converting enzyme (ECE) (protein) MMSTYKRATLDEEDLVDSLSEGDAYPNGLQVNFHSPRSGQRCWAARTQVEKRLVVLVVLLAAGLVACLAALGIQYQTRSPSVCLSEACVSVTSSILSSMDPTVDPCHDFFSYACGGWIKANPVPDGHSRWGTFSNLWEHNQAIIKHLLENSTASVSEAERKAQVYYRACMNETRIEELRAKPLMELIERLGGWNITGPWAKDNFQDTLQVVTAHYRTSPFFSVYVSADSKNSNSNVIQVDQSGLGLPSRDYYLNKTENEKVLTGYLNYMVQLGKLLGGGDEEAIRPQMQQILDFETALANITIPQEKRRDEELIYHKVTAAELQTLAPAINWLPFLNTIFYPVEINESEPIVVYDKEYLEQISTLINTTDRCLLNNYMIWNLVRKTSSFLDQRFQDADEKFMEVMYGTKKTCLPRWKFCVSDTENNLGFALGPMFVKATFAEDSKSIATEIILEIKKAFEESLSTLKWMDEETRKSAKEKADAIYNMIGYPNFIMDPKELDKVFNDYTAVPDLYFENAMRFFNFSWRVTADQLRKAPNRDQWSMTPPMVNAYYSPTKNEIVFPAGILQAPFYTRSSPKALNFGGIGVVVGHELTHAFDDQGREYDKDGNLRPWWKNSSVEAFKRQTECMVEQYSNYSVNGEPVNGRHTLGENIADNGGLKAAYRAYQNWVKKNGAEHSLPTLGLTNNQLFFLGFAQVWCSVRTPESSHEGLITDPHSPSRFRVIGSLSNSKEFSEHFRCPPGSPMNPPHKCEVW |  |  |  | 1s, Km=22.1±0.9 µM | In all cases, a single cleavage site at the L.PyA-Lp.NF dipeptide was observed, generating only two metabolites | produce only two metabolites, as shown by analysis of the reaction by HPLC, corresponding to the single cleavage at the PyA-pNF peptide bond
